Reference: publication PMC3568146, “Very Late Antigen-4 (α4β1 Integrin) Targeted PET Imaging of Multiple Myeloma” (PLoS ONE, 2013)
“Also recorded” adds a separate entry of the source. Read-outs that look alike come from different tables or passages of the source.

Key:
RPMI-8226 cells = test: In vitro cell uptake assay, RPMI-8226 cells; assay type: cell-based, human; conditions: 0.1 nM tracer, 37°C, 60 min, 1 mM Mn2+, ~200-fold excess LLP2A, P<0.0001
Method: (§1) Cell uptake assays were performed in murine 5TGM1 and human RPMI-8226 myeloma cells using ^64Cu-CB-TE1A1P-LLP2A to determine the sum of cell internalized and surface-bound fractions. Cells were grown in Iscoves MDM until 60−75% confluent, harvested by mechanical dissociation, and re-suspended in the binding medium (phosphate buffered saline [PBS], 0.1% bovine serum albumin [BSA] and 1 mM Mn^2+) in 1.5 mL microfuge tubes. A solution of ^64Cu-CB-TE1A1P-LLP2A (0.1 nM) was added to the cell suspension. The samples were incubated for 60 min in a cell incubator (37°C, 5% CO2). To determine the in vitro VLA-4 binding specificity of ^64Cu-CB-TE1A1P-LLP2A, samples were co-incubated with ∼200-fold excess of the unlabeled ligand, LLP2A. After incubation, the samples were centrifuged at 1,500 rpm for 5 min, and the radioactive medium was removed. Cell pellets were rinsed with ice cold binding buffer (500 µL) and centrifuged at 1,500 rpm for 3 min (2 X). The radioactivity in cell pellets was measured in a well counter (Packard II gamma counter).
Binding of ^64Cu-CB-TE1A1P-LLP2A was evaluated in human MM cell line RPMI-8226 in vitro.

5TGM1 cells = test: In vitro cell uptake assay, 5TGM1 cells; assay type: cell-based, mouse
Method: as §1

[1] = target: T1, VLA-4 (α4β1 integrin) on 5TGM1 murine myeloma cells (Mus musculus, UniProt P09055+Q00651); test: In vitro saturation binding assay on 5TGM1 whole cells; conditions: tracer 0.5–15.5 nM, 2 h at 4°C, 1 mM Mn2+, N = 3
T1 construct: was incubated with ∼250,000 5TGM1 (∼ 0.41 mg protein) whole cells; endogenous in cells; host or cells: 5TGM1 murine myeloma cells (whole cells)
T1 sequence (Q00651 41-1039): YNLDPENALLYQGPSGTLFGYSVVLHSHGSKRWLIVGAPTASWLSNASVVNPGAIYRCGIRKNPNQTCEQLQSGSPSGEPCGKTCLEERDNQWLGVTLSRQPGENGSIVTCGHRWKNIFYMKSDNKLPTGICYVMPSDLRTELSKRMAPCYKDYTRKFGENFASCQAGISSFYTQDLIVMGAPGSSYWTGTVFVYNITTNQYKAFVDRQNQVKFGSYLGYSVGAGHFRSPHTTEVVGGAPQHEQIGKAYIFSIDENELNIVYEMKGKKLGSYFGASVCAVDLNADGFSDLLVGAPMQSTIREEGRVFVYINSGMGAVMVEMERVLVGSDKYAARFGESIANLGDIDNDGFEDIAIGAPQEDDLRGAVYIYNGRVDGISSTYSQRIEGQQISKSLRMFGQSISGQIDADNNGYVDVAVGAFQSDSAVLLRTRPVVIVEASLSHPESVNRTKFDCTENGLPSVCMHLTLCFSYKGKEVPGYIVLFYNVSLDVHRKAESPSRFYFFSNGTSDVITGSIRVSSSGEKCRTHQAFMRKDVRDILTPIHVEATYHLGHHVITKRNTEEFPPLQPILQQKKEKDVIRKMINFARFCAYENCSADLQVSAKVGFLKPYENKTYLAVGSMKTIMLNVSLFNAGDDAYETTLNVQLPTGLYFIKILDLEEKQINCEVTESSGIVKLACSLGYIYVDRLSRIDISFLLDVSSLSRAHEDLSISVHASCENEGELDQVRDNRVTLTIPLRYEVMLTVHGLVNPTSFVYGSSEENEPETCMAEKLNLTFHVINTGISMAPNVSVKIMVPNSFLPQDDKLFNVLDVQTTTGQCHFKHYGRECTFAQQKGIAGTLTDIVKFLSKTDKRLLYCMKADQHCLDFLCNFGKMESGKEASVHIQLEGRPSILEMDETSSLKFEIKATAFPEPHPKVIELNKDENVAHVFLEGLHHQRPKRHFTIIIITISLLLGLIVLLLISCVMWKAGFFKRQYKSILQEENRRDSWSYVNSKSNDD
T1 sequence (P09055 21-798): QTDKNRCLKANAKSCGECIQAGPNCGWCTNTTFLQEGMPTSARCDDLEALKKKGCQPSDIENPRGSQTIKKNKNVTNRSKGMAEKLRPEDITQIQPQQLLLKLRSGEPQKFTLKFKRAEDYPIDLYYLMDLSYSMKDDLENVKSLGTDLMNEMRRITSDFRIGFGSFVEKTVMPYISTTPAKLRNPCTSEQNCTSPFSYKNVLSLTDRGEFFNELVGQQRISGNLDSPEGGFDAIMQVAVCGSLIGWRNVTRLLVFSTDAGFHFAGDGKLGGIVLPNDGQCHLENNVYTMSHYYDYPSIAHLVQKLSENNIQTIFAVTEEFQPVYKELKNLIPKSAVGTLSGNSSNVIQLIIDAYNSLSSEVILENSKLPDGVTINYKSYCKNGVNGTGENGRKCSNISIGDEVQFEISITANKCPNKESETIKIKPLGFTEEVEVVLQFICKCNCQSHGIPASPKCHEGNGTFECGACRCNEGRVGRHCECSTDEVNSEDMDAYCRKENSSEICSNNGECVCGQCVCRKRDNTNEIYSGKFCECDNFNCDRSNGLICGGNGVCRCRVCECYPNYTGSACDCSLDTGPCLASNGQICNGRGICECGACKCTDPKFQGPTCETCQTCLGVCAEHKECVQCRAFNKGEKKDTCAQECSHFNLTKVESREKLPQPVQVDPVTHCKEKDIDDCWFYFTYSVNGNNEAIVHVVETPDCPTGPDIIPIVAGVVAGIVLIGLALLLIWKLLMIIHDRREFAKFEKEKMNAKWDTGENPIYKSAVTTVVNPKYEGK
Method: For saturation binding experiments, ^64Cu-CB-TE1A1P-LLP2A (0.5–15.5 nM) was incubated with ∼250,000 5TGM1 (∼ 0.41 mg protein) whole cells in 1.5 mL microfuge tubes for 2 h at 4°C in a total volume of 500 µL of binding medium (phosphate buffered saline [PBS], 0.1% bovine serum albumin [BSA] and 1 mM Mn^2+). The reaction tubes were put on a slow moving rotor during the 4°C incubation. After the incubation, samples were centrifuged at 1,500 rpm for 5 min, reaction buffer was removed by vacuum aspiration and the cells were washed two times with ice cold PBS. Non-specific binding was determined by conducting the assay in the presence of an excess (∼200 fold) unlabeled LLP2A. The radioactivity in the cell pellets was measured in a well counter (Packard II gamma counter). The specific binding was obtained by the subtraction of non-specific binding from total binding. The dissociation constant (Kd) and receptor density (Bmax) were estimated from the non-linear fitting of the specific binding versus the concentration of ^64Cu-CB-TE1A1P-LLP2A using Prism software (GraphPad, San Diego, CA).
The in vitro binding affinity of ^64Cu-CB-TE1A1P-LLP2A was investigated by determining the equilibrium dissociation constant (Kd) and the maximum specific binding (Bmax) of the radiolabeled conjugate to 5TGM1 cells in saturation binding assays. […]

5TGM1 tumors [2] = test: Small animal PET/CT imaging in KaLwRij mice bearing 5TGM1 tumors; assay type: in vivo, mouse; conditions: 2 h post injection
Method: (§2) KaLwRij mice (from Dr. Claire M. Edwards, Vanderbilt University Medical Center Cancer Biology, Nashville, TN) were housed in ventilated cage racks and allowed food and water. 5TGM1 cells in log phase growth were prepared for injection by precipitation in a centrifuge followed by a wash step with sterile endotoxin-free PBS. Finally, the cells were re-suspended in endotoxin-free PBS at a concentration of 1×10^6 cells/mL and injected with or without matrigel, respectively, in the nape of the neck subcutaneously (s.c.) or intraperitoneally (i.p.) in a 100 µL volume in 3–5 week old mice. The tumors were allowed to grow for an average of 10 d.
(§3) Prior to small animal PET/CT imaging, mice were injected intravenously (tail vein) with ^64Cu-CB-TE1A1P-LLP2A (0.9 MBq (SA: 37 MBq/µg)). At 2 h post injection, mice were anaesthetized with 1–2% isoflurane and imaged with small animal PET (Focus 220 or Inveon (Siemens Medical Solutions, Knoxville,TN)), while the CT images were acquired with the Inveon. Static images were collected for 30 min and co-registered using the Inveon Research Workstation (IRW) software (Siemens Medical Solutions, Knoxville,TN). PET images were re-constructed with the maximum a posteriori (MAP) algorithm. The analysis of the small animal PET images was done using the IRW software. Regions of interest (ROI) were selected from PET images using CT anatomical guidelines and the activity associated with them was measured with IRW software. Maximum standard uptake values (SUVs) for both experiments were calculated using SUV = ([nCi/mL]x[animal weight (g)]/[injected dose (nCi)]). A set of mice was also imaged at 24 h post injection.
(§4) To test the ability of ^64Cu-CB-TE1A1P-LLP2A to image MM, small animal PET/CT imaging was conducted in KaLwRij mice bearing 5TGM1 murine myeloma tumors. The following i.p. and s.c. 5TGM1 models were used for the proof-of-principle imaging studies: 1) a non-matrigel assisted s.c. (plasmacytoma) tumor in the flank of the mouse (Figure 4B); 2) a matrigel assisted s.c. tumor in the flank of the mouse (Figure 4C); and 3) tumor cells injected in the peritoneal (i.p.) cavity (Figure 4D). Figure 4 contains […] (B-D) representative maximum intensity projection (MIP) small animal PET images using ^64Cu-CB-TE1A1P-LLP2A (0.9 MBq, 0.05 µg, 27 pmol, SA: 37 MBq/µg) at 2 h post injection in the various models compared to a non-tumor-bearing control mouse (Figure 4A). […] The SUV of the tumor shown in Figure 4D was not determined due to the large tumor size and overlap with the spleen and bladder. The heterogeneous distribution of the imaging agent in Figure 4D likely corresponds with the heterogeneity of the tumor mass. The uptake of ^64Cu-CB-TE1A1P-LLP2A in i.p. tumors was determined to be 14.9±2.6%ID/g by post PET biodistribution (2 h post injection). […] We are currently investigating the imaging of myeloma induced spleen pathology (splenomegaly) in orthotopic (i.v.) 5TGM1 mouse models of MM.

[3] = as above; assay type: in vivo, mouse; conditions: KaLwRij, mouse, iv, total radioactivity
Method: as §2, §3, §4

5TGM1 tumors [4] = test: Tissue biodistribution in 5TGM1 tumor-bearing KaLwRij mice; assay type: in vivo, mouse; conditions: 2 h, co-administered ~200-fold excess cold LLP2A, p<0.05, N = 4
Method: as §2
(§5) 5TGM1 tumor bearing mice were sacrificed at 2 or 24 h after the injection of the radiopharmaceutical, ^64Cu-CB-TE1A1P-LLP2A. Blood, marrow, fat, heart, stomach, intestines, lungs, liver, spleen, kidneys, muscle, bone, pancreas, and tumor were harvested, weighed, and counted in the γ-counter. For the in vivo blocking studies, an additional group of mice was injected with the radiopharmaceutical premixed with ∼200-fold excess of LLP2A to serve as a blocking agent and sacrificed at the respective time point. The percent injected dose per gram of tissue (%ID/g) was determined by decay correction of the radiopharmaceutical for each sample normalized to a standard of known weight, which was representative of the injected dose.
(§6) Figure 3 Tissue biodistribution of ^64Cu-CB-TE1A1P-LLP2A in 5TGM1 s.c. tumor mice. Biodistribution of ^64Cu-CB-TE1A1P-LLP2A in 5TGM1 s.c. tumor mice (black bars). The open bars represent biodistribution in the presence of non-radioactive blocking agent (∼ 200 fold excess LLP2A). Mice were injected with ^64Cu-CB-TE1A1P-LLP2A (0.01 µg, 0.2 MBq, SA: 37 MBq/µg) and sacrificed at 2 h post injection. N = 4 mice/group.

[5] = as above; assay type: in vivo, mouse; conditions: mouse, iv, 0.01 ug, total radioactivity, 2 h post injection, s.c. 5TGM1 tumor KaLwRij mice, mean±SD, N = 4
Method: as §2, §5, §6

Q: For Cc1ccccc1NC(=O)Nc1ccc(CC(=O)N[C@@H](CCCCNC(=O)/C=C/c2cccnc2)C(=O)N[C@@H](CCCC(=O)O)C(=O)NC2(C(=O)NCCOCCOCCNC(=O)CCC(=O)NCCOCCOCCNC(=O)CCC(=O)N[C@@H](CCCCNC(=O)CN3CCCN4CCN(CCCN(CP(=O)(O)O)CC4)CC3)C(N)=O)CCCCC2)cc1 [64Cu-CB-TE1A1P-LLP2A, metal not drawn], which “Cell uptake in RPMI-8226 cells, with vs. without excess LLP2A” value (RPMI-8226 cells) is on record?
A: significantly reduced; also recorded: significantly blocked

Q: What about the “Cell uptake (internalized + surface-bound), block vs. non-block” value (5TGM1 cells; 0.1 nM tracer, 60 min, 37°C, PBS/0.1% BSA/1 mM Mn2+, with and without ~200-fold excess LLP2A, P<0.0001) of the same molecule?
A: receptor specific uptake; also recorded: significantly different; also recorded: significantly reduced

Q: What about the “Cell uptake in the absence of receptor activating cation Mn2+” value (5TGM1 cells; without Mn2+, data not shown) of the same molecule?
A: much lower binding

Q: What about the “Bmax (maximum specific binding, receptor density)” value [1] of the same molecule?
A: 136 pmol/mg

Q: What about the “Spleen SUV, non-tumor bearing mouse” value (5TGM1 tumors [2]; non-tumor KaLwRij control mouse) of the same molecule?
A: 2.2

Q: And the “Reduction in tumor SUV in the presence of blocking agent” value (5TGM1 tumors [2]; ~200-fold excess LLP2A, P<0.05)?
A: 3 fold

Q: And the “Tumor SUV, early stage non-palpable s.c. 5TGM1 tumor without matrigel” value (5TGM1 tumors [2]; representative mouse, Figure 4B)?
A: 2.24

Q: And the “Tumor SUV, matrigel assisted s.c. 5TGM1 tumor” value (5TGM1 tumors [2]; representative mouse, Figure 4C)?
A: 6.2

Q: What about the SUV at 2 h ([3]; spleen, 0.05 ug, 2 h post injection, 5TGM1 tumor bearing mice, read-out: Spleen SUV, tumor bearing mice) of the same molecule?
A: 3.3 SUV

Q: And the tissue to tissue ratio at 2 h ([3]; tumor and muscle, 0.9 MBq, 2 h post injection, calculated from MIP image SUVs)?
A: 28 ± 6

Q: And the tissue to tissue ratio at 24 h ([3]; tumor and muscle, 0.9 MBq, 24 h post injection, calculated from MIP image SUVs)?
A: 161 ± 41

Q: And the SUV at 2 h ([3]; tumor, 0.05 ug, 2 h post injection, 0.9 MBq, 0.05 µg, 27 pmol, 5TGM1 tumors, mean±SD, N = 4, read-out: Tumor SUV (averaged maximum SUV from MIP PET images), no block)?
A: 6.2 ± 1.1 SUV

Q: What about the SUV at 2 h ([3]; tumor, 2 h post injection, ~200-fold excess LLP2A, mean±SD, N = 4, P<0.05, read-out: Tumor SUV in the presence of blocking agent) of the same molecule?
A: 2.3 ± 0.4 SUV

Q: And the “Uptake in tumor, spleen and bone in the presence of blocking agent” value (5TGM1 tumors [4])?
A: significantly reduced

Q: And the tissue uptake at 2 h ([5]; i.v., 0.01 µg, 0.2 MBq, read-out: Tumor uptake (s.c. 5TGM1))?
A: 12 ± 4.5 %ID/g

Q: What about the tissue uptake at 2 h ([5]; spleen, read-out: Spleen uptake) of the same molecule?
A: 8.8 ± 1 %ID/g
